Reference: EP4644418A1 (Hebei Senlang Biotechnology Co. Ltd., dated 2025)

T1: BCMA-His protein (extracellular region of human BCMA, His-tagged) (human, UniProt Q02223 1-54)
T1 construct: extracellular domain; Made in house and purified on a Ni column; also called human BCMA antigen; recombinant BCMA-His protein; not shown: His tag
T1 sequence (looked up): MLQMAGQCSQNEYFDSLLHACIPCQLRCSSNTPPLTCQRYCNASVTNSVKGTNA


How the values were obtained:
[1] = molecular target: T1, BCMA-His protein (extracellular region …); test: ELISA, BCMA-His coated, anti-human IgG1 Fc-HRP detection
[2] = molecular target: T1, BCMA-His protein (extracellular region …); test: SPR (Biacore 8K), BCMA-His captured on NTA chip, nanobody-Fc as analyte, 1:1 binding fit
[3] = molecular target: T1, BCMA-His protein (extracellular region …); test: flow cytometry of CAR-T cells stained with BCMA-His and an anti-His tag antibody
[4] = molecular target: T1, BCMA-His protein (extracellular region …); test: flow cytometry (MFI) of transduced K562 cells stained with BCMA-His and an anti-His tag antibody
[5] = molecular target: T1, BCMA-His protein (extracellular region …); test: monoclonal phage ELISA on coated BCMA protein, HA-HRP detection

Binder	EC50 [1] [nM]	Kd [2] [nM]	koff [2] [s⁻¹]	kon [2] [M⁻¹ s⁻¹]	other results
dNb003-B-Fc (Fc fusion, biotinylated for the flow cytometry assay only (sites not given), not shown: N-terminal SUMO tag from plasmid pET-28a-Sumo-Nb-Fc; human IgG1 Fc tag at the C-terminus) QVQLQESGGGSVQPGGSLRLSCKASGFTFSPSAMSWARQAPGKEIEWVSNIYPDGRTYYADSMKGRFTISRDNAENTVYLQMNSLKPEDTAVYYCLIGVGIVAGQVVSPYWGQGTQVTVSSGGGGSGGGGSGGGGSGGGGSGGGGSQVQLQESGGGLVQPGGSLRLSCAASGFTFSNYAMSWFRQGPGKERELVAGIDRTGGSTRTADSVQGRFTISRDNAKNKVYLQMNSLKPEDTAVYYCKALRTPGWGTSPDVVGYWGQGTQVTVSS	0.346	1.94	0.00245	1.27e+06	–
NMC003-01 (single VHH CAR with VHH01, on CAR-T cells) (other, also called NMC003-01 CAR-T) QVQLQESGGGSVQPGGSLRLSCKASGFTFSPSAMSWARQAPGKEIEWVSNIYPDGRTYYADSMKGRFTISRDNAENTVYLQMNSLKPEDTAVYYCLIGVGIVAGQVVSPYWGQGTQVTVSSTTPAPRPPTPAPTIASQPLSLRPEACRPAAGGAVHTRGLDFACDIYIWAPLAGTCGVLLLSLVITLYCKRGRKKLLYIFKQPFMRPVQTTQEEDGCSCRFPEEEEGGCELRVKFSRSADAPAYKQGQNQLYNELNLGRREEYDVLDKRRGRDPEMGGKPRRKNPQEGLYNELQKDKMAEAYSEIGMKGERRRGKGHDGLYQGLSTATKDTYDALHMQALPPR	–	–	–	–	binding result [3]: binds
dNMC003-B (dual VHH CAR, VHH01-(G4S)5-VHH02, on K562 or CAR-T cells) (other, T2A-tEGFR follows in the construct and is split off at T2A; also called K562-dNMC003-B; dNMC003-B CAR-T) QVQLQESGGGSVQPGGSLRLSCKASGFTFSPSAMSWARQAPGKEIEWVSNIYPDGRTYYADSMKGRFTISRDNAENTVYLQMNSLKPEDTAVYYCLIGVGIVAGQVVSPYWGQGTQVTVSSGGGGSGGGGSGGGGSGGGGSGGGGSQVQLQESGGGLVQPGGSLRLSCAASGFTFSNYAMSWFRQGPGKERELVAGIDRTGGSTRTADSVQGRFTISRDNAKNKVYLQMNSLKPEDTAVYYCKALRTPGWGTSPDVVGYWGQGTQVTVSSTTPAPRPPTPAPTIASQPLSLRPEACRPAAGGAVHTRGLDFACDIYIWAPLAGTCGVLLLSLVITLYCKRGRKKLLYIFKQPFMRPVQTTQEEDGCSCRFPEEEEGGCELRVKFSRSADAPAYKQGQNQLYNELNLGRREEYDVLDKRRGRDPEMGGKPRRKNPQEGLYNELQKDKMAEAYSEIGMKGERRRGKGHDGLYQGLSTATKDTYDALHMQALPPR	–	–	–	–	binding result [4]: binds
dNMC003-A (dual VHH CAR, VHH02-(G4S)5-VHH02, on K562 or CAR-T cells) (other, T2A-tEGFR follows in the construct and is split off at T2A; also called K562-dNMC003-A; dNMC003-A CAR-T) QVQLQESGGGLVQPGGSLRLSCAASGFTFSNYAMSWFRQGPGKERELVAGIDRTGGSTRTADSVQGRFTISRDNAKNKVYLQMNSLKPEDTAVYYCKALRTPGWGTSPDVVGYWGQGTQVTVSSGGGGSGGGGSGGGGSGGGGSGGGGSQVQLQESGGGLVQPGGSLRLSCAASGFTFSNYAMSWFRQGPGKERELVAGIDRTGGSTRTADSVQGRFTISRDNAKNKVYLQMNSLKPEDTAVYYCKALRTPGWGTSPDVVGYWGQGTQVTVSSTTPAPRPPTPAPTIASQPLSLRPEACRPAAGGAVHTRGLDFACDIYIWAPLAGTCGVLLLSLVITLYCKRGRKKLLYIFKQPFMRPVQTTQEEDGCSCRFPEEEEGGCELRVKFSRSADAPAYKQGQNQLYNELNLGRREEYDVLDKRRGRDPEMGGKPRRKNPQEGLYNELQKDKMAEAYSEIGMKGERRRGKGHDGLYQGLSTATKDTYDALHMQALPPR	–	–	–	–	binding result [4]: binds
Nb003-01 (VHH01), monoclonal phage clone (VHH) VHH: QVQLQESGGGSVQPGGSLRLSCKASGFTFSPSAMSWARQAPGKEIEWVSNIYPDGRTYYADSMKGRFTISRDNAENTVYLQMNSLKPEDTAVYYCLIGVGIVAGQVVSPYWGQGTQVTVSS	–	–	–	–	binding result [5]: binds
Nb003-01-Fc (Fc fusion, biotinylated for the flow cytometry assay only (sites not given), also called VHH01; not shown: N-terminal SUMO tag from plasmid pET-28a-Sumo-Nb-Fc; human IgG1 Fc tag at the C-terminus) QVQLQESGGGSVQPGGSLRLSCKASGFTFSPSAMSWARQAPGKEIEWVSNIYPDGRTYYADSMKGRFTISRDNAENTVYLQMNSLKPEDTAVYYCLIGVGIVAGQVVSPYWGQGTQVTVSS	2.05	62	0.000857	13800	–
Nb003-02-Fc (Fc fusion, biotinylated for the flow cytometry assay only (sites not given), also called VHH02; not shown: N-terminal SUMO tag from plasmid pET-28a-Sumo-Nb-Fc; human IgG1 Fc tag at the C-terminus) QVQLQESGGGLVQPGGSLRLSCAASGFTFSNYAMSWFRQGPGKERELVAGIDRTGGSTRTADSVQGRFTISRDNAKNKVYLQMNSLKPEDTAVYYCKALRTPGWGTSPDVVGYWGQGTQVTVSS	0.652	1.79	0.00212	1.19e+06	–
Nb003-02 (VHH02), monoclonal phage clone (VHH) VHH: QVQLQESGGGLVQPGGSLRLSCAASGFTFSNYAMSWFRQGPGKERELVAGIDRTGGSTRTADSVQGRFTISRDNAKNKVYLQMNSLKPEDTAVYYCKALRTPGWGTSPDVVGYWGQGTQVTVSS	–	–	–	–	binding result [5]: binds
